In data set [1] the target is T1, KAE1;BUD32;CGI121;PCC1 R70D/R73D/A74E (Arabidopsis thaliana;Arabidopsis …, UniProt O49653;Q94K14;Q6NMZ4;Q8GWD7 1-353;1-226;1-172;1-96, |||R70D;R73D;A74E).
T1 sequence 1: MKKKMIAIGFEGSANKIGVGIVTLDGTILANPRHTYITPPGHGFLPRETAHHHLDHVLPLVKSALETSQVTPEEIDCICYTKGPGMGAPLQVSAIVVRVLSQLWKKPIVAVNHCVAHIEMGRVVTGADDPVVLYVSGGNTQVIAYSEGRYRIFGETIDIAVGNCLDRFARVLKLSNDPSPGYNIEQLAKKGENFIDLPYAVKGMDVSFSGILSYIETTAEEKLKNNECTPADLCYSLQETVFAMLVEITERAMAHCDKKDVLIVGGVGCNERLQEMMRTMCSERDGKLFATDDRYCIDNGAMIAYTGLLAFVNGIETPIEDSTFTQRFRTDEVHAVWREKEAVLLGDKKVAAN
T1 sequence 2: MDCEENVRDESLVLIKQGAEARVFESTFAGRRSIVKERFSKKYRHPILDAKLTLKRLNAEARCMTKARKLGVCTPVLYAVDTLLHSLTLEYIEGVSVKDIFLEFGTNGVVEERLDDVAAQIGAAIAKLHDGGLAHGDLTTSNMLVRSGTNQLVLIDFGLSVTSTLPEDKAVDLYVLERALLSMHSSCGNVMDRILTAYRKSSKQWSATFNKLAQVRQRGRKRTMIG
T1 sequence 3: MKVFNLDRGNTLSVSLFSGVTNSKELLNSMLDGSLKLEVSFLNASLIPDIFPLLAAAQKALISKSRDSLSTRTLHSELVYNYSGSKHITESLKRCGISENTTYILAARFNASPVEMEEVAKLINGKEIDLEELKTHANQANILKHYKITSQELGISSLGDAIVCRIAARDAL
T1 sequence 4: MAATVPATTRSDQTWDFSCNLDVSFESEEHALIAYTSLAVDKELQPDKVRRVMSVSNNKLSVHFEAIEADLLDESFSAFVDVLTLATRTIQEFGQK
Nature of the data set: MST; KEOPS monomer; MST: 20 mM PBS pH 7.5, 300 mM NaCl, 0.05% Tween 20, 25 C, 50 nM RNA; EMSA: 20 mM Tris-HCl pH 7.5, 300 mM NaCl, 5 mM b-mercaptoethanol, 20% glycerol, agarose gel in Tris-glycine pH 8.0 (8.5 for FAM-RNA), 4 C. As to conditions: protein: recombinant;recombinant;recombinant;recombinant; tags: none (6His on partner PCC1);none (6His on partner CGI121);6His (C-term);6His (C-term); chain copies: 2;2;2;2; label: 5' 6-FAM; tRNA cloverleaf. (In general: Mobility shift assays separate free from complexed probe on a gel.)

Data set [2] addresses T2, KAE1;BUD32;CGI121;PCC1 (Arabidopsis thaliana;Arabidopsis …, UniProt O49653;Q94K14;Q6NMZ4;Q8GWD7 1-353;1-226;1-172;1-96, |||).
T2 sequence 1: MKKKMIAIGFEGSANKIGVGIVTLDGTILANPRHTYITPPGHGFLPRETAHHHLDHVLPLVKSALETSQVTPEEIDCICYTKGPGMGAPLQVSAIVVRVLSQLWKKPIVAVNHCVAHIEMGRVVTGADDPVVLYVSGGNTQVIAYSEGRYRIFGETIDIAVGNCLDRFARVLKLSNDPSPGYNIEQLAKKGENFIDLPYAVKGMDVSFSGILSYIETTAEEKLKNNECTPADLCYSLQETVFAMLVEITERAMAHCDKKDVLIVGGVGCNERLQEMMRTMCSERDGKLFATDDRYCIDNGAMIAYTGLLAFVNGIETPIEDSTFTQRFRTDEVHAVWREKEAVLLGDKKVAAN
T2 sequence 2: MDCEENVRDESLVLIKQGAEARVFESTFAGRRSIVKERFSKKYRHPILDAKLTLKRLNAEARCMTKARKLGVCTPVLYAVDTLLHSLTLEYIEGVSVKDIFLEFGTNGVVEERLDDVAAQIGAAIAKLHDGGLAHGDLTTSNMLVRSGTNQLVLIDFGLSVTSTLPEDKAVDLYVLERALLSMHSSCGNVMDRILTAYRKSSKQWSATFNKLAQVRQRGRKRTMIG
T2 sequence 3: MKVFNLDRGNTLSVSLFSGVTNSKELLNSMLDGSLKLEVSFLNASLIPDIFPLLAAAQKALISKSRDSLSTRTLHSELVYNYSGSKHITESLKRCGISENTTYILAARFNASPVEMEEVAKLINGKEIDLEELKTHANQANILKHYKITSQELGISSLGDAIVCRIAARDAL
T2 sequence 4: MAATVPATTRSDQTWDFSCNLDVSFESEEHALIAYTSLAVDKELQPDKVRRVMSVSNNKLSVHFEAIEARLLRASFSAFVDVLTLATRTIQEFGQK
Put plainly: MST; KEOPS dimer; MST: 20 mM PBS pH 7.5, 300 mM NaCl, 0.05% Tween 20, 25 C, 50 nM RNA; EMSA: 20 mM Tris-HCl pH 7.5, 300 mM NaCl, 5 mM b-mercaptoethanol, 20% glycerol, agarose gel in Tris-glycine pH 8.0 (8.5 for FAM-RNA), 4 C. The conditions noted are these: protein: recombinant;recombinant;recombinant;recombinant; tags: none (6His on partner PCC1);none (6His on partner CGI121);6His (C-term);6His (C-term); chain copies: 2;2;2;2; label: 5' 6-FAM; tRNA cloverleaf.

Data set [3] deals with T3, KAE1 I17F;BUD32;CGI121;PCC1 (Arabidopsis thaliana;Arabidopsis …, UniProt O49653;Q94K14;Q6NMZ4;Q8GWD7 1-353;1-226;1-172;1-96, I17F|||).
T3 sequence 1: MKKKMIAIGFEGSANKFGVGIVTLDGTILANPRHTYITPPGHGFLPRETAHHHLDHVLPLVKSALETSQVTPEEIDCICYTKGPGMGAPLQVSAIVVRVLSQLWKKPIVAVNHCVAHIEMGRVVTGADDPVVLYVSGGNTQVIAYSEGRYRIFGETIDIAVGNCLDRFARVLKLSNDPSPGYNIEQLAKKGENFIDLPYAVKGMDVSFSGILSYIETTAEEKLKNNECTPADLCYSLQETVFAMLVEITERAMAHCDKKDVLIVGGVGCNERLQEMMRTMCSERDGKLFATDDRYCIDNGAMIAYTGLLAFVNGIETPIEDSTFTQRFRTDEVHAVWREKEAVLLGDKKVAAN
T3 sequence 2: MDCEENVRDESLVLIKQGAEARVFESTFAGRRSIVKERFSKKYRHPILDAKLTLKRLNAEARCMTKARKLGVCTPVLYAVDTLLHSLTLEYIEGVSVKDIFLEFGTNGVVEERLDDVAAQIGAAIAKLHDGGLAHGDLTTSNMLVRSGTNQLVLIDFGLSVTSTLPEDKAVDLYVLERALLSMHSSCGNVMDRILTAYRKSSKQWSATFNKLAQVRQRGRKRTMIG
T3 sequence 3: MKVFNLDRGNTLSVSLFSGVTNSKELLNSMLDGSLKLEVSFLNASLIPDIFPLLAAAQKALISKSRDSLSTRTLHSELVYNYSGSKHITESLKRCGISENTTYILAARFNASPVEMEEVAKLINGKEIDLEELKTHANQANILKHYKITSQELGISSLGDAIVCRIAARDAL
T3 sequence 4: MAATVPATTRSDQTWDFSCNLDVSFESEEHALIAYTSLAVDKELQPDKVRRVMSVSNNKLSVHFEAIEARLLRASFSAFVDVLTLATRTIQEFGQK
Put plainly: EMSA; 1:5 RNA:protein; MST: 20 mM PBS pH 7.5, 300 mM NaCl, 0.05% Tween 20, 25 C, 50 nM RNA; EMSA: 20 mM Tris-HCl pH 7.5, 300 mM NaCl, 5 mM b-mercaptoethanol, 20% glycerol, agarose gel in Tris-glycine pH 8.0 (8.5 for FAM-RNA), 4 C. The conditions noted are these: protein: recombinant;recombinant;recombinant;recombinant; tags: ;none (6His on partner CGI121);6His (C-term);6His (C-term); chain copies: 2;2;2;2; label: 5' 6-FAM; tRNA cloverleaf.

Data set [4] concerns the target T4, KAE1;BUD32;CGI121;PCC1 R73D (Arabidopsis thaliana;Arabidopsis …, UniProt O49653;Q94K14;Q6NMZ4;Q8GWD7 1-353;1-226;1-172;1-96, |||R73D).
T4 sequence 1: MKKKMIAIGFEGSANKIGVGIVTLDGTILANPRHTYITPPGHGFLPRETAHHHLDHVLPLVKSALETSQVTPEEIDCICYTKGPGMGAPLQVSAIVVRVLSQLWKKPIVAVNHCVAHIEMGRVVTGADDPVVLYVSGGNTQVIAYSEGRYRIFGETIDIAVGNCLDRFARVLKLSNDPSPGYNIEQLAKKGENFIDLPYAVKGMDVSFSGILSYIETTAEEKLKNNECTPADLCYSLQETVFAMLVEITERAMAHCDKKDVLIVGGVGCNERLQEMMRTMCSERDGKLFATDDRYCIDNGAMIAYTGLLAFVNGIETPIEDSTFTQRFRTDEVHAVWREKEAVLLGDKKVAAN
T4 sequence 2: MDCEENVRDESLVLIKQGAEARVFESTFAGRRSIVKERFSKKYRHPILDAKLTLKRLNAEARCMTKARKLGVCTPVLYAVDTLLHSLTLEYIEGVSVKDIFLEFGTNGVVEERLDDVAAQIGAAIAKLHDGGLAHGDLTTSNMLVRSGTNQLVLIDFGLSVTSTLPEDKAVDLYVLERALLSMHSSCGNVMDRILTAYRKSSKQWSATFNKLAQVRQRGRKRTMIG
T4 sequence 3: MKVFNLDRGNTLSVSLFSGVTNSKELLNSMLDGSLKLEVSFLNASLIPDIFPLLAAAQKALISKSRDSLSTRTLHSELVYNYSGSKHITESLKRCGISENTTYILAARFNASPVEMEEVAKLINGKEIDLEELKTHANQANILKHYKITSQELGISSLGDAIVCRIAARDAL
T4 sequence 4: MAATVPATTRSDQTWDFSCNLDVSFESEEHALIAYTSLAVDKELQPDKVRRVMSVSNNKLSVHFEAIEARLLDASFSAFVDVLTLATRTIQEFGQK
Nature of the data set: MST; Fig S4 legend gives ~372; MST: 20 mM PBS pH 7.5, 300 mM NaCl, 0.05% Tween 20, 25 C, 50 nM RNA; EMSA: 20 mM Tris-HCl pH 7.5, 300 mM NaCl, 5 mM b-mercaptoethanol, 20% glycerol, agarose gel in Tris-glycine pH 8.0 (8.5 for FAM-RNA), 4 C. The conditions noted are these: protein: recombinant;recombinant;recombinant;recombinant; tags: none (6His on partner PCC1);none (6His on partner CGI121);6His (C-term);6His (C-term); chain copies: 2;2;2;2; label: 5' 6-FAM; tRNA cloverleaf.

The values below come from publication PMC11077089, “Molecular basis of A. thaliana KEOPS complex in biosynthesizing tRNA t6A”.

Usually Kd stands for the constant that tells how readily two partners part at equilibrium.

B1: 5'-6FAM-tRNAArgCCU (structured_RNA)
RNA: GCGCCUGUAGCUCAGUGGAUAGAGCGUCUGUUUCCUAAGCAGAAGGUCGUAGGUUCGACCCCUACCUGGCGCGCCA
For the molecule B1, the Kd was 74.4 ± 13.5 µM in data set [1], 18.1 ± 3.87 µM in data set [2] and 353 ± 40 µM in data set [4]. Besides, the binding result in data set [3] was “binds”.
